Values belong to the binder of their own block, whether it stands above or below them.
Columns and labels:
Experiment in all cases: holdup assay
Design in all cases: key: below the threshold = too weak to quantify, mostly under pKd 3.1 to 4
Inadl_10, Q8NI35 = target: Inadl_10, Q8NI35
PDZD2_2, O15018 = target: T1, PDZD2_2, O15018
T1 sequence (O15018 329-429, limits assumed, looked up): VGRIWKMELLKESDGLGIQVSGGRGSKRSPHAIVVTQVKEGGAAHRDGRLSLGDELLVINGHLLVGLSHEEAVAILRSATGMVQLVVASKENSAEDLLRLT

DLG3_2, Q92796 = target: T2, DLG3_2, Q92796
T2 sequence (Q92796 221-321, limits assumed, looked up): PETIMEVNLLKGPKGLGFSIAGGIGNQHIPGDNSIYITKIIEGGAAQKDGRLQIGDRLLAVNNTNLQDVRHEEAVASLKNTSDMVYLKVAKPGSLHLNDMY

FRMPD3, Q5JV73 = target: FRMPD3, Q5JV73
PDLIM1, O00151 = target: PDLIM1, O00151
APBA1_1, Q02410 = target: T3, APBA1_1, Q02410
T3 sequence (Q02410 651-752, limits assumed, looked up): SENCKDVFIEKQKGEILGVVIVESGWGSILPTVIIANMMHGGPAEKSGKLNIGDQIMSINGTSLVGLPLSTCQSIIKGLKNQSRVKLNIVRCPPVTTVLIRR

NHERF3_4, Q5T2W1 = target: T4, NHERF3_4, Q5T2W1
T4 sequence (Q5T2W1 373-468, limits assumed, looked up): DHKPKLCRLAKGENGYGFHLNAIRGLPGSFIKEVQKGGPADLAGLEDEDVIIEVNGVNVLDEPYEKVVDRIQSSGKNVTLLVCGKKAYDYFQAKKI

MAGI2_6, Q86UL8 = target: MAGI2_6, Q86UL8
PICK1, Q9NRD5 = target: PICK1, Q9NRD5
PTPN3, P26045 = target: PTPN3, P26045
NHERF2_2, Q15599 = target: NHERF2_2, Q15599
Inadl_1, Q8NI35 = target: Inadl_1, Q8NI35
FRMPD2_1, Q68DX3 = target: FRMPD2_1, Q68DX3
TJP2_1, Q9UDY2 = target: TJP2_1, Q9UDY2
MPDZ_10, O75970 = target: T5, MPDZ_10, O75970
T5 sequence (O75970 1624-1722, limits assumed, looked up): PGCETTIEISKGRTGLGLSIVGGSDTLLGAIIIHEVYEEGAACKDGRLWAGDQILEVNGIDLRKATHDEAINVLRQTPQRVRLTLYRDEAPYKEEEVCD

NHERF3_1, Q5T2W1 = target: T6, NHERF3_1, Q5T2W1
T6 sequence (Q5T2W1 4-100, limits assumed, looked up): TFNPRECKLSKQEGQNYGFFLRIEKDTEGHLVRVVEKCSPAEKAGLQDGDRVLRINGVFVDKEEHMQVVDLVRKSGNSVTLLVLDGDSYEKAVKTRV

NHERF4_1, Q86UT5-2 = target: NHERF4_1, Q86UT5-2
LIN7B, Q9HAP6 = target: T7, LIN7B, Q9HAP6
T7 sequence (Q9HAP6 88-185, limits assumed, looked up): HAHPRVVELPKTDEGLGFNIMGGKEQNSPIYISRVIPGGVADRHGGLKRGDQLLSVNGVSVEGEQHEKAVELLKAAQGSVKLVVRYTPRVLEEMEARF

MPDZ_5, O75970 = target: T8, MPDZ_5, O75970
T8 sequence (O75970 695-796, limits assumed, looked up): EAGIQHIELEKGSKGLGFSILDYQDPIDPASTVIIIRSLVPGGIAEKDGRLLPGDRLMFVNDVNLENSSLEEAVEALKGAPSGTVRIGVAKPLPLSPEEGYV

GRIP1_5, Q9Y3R0 = target: T9, GRIP1_5, Q9Y3R0
T9 sequence (Q9Y3R0 568-668, limits assumed, looked up): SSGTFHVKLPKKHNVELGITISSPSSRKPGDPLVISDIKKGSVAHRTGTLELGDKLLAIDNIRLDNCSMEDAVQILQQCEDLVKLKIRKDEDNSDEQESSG

TJP1_3, Q07157 = target: TJP1_3, Q07157
DLG3_1, Q92796 = target: T10, DLG3_1, Q92796
T10 sequence (Q92796 125-227, limits assumed, looked up): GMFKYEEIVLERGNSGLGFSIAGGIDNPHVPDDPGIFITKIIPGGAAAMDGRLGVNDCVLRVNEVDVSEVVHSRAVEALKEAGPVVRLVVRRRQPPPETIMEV

DLG1_2, Q12959 = target: DLG1_2, Q12959
NHERF4_4, Q86UT5 = target: NHERF4_4, Q86UT5
SNX27, Q96L92 = target: SNX27, Q96L92
SIPA1L2, Q9P2F8 = target: T11, SIPA1L2, Q9P2F8
T11 sequence (Q9P2F8 945-1036, limits assumed, looked up): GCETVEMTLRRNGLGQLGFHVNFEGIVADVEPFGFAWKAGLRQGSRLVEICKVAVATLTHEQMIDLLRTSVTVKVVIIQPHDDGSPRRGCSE

LAP2, Q96RT1 = target: LAP2, Q96RT1
[1] = plain residues with an end cap or a label only (N-terminal biotin on a linker: ahx)
[2] = plain residues with an end cap or a label only (N-terminal biotin on a linker: ado-ado)

Chain of TJP1_3, Q07157 (Q07157 416-512): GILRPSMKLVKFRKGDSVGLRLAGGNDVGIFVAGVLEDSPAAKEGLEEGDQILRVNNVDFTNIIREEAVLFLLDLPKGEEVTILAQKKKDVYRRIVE
Chain of NHERF4_1, Q86UT5-2 (Q86UT5 other isoform, or with tags, fused parts or gaps): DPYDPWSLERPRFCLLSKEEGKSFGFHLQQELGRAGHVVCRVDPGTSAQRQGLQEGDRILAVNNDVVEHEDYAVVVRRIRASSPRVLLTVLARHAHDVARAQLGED
Chain of FRMPD2_1, Q68DX3 (Q68DX3 770-861): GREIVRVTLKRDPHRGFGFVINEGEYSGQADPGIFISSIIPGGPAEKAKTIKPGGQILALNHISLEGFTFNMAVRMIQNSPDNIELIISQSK
Chain of LAP2, Q96RT1 (Q96RT1 other isoform, or with tags, fused parts or gaps): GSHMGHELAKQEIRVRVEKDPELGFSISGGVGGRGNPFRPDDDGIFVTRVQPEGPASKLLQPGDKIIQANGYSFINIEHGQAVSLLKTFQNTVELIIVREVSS
Chain of DLG1_2, Q12959 (Q12959 314-412): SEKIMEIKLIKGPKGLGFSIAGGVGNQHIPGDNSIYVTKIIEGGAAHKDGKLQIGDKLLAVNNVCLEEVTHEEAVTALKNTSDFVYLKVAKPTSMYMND
Chain of PTPN3, P26045 (P26045 505-587): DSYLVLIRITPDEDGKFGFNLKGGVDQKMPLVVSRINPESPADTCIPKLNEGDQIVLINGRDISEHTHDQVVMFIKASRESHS
Chain of PICK1, Q9NRD5 (Q9NRD5 17-115): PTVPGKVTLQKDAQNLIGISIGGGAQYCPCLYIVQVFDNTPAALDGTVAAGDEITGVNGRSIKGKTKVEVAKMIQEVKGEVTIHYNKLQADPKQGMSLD
Chain of FRMPD3, Q5JV73 (Q5JV73 12-100): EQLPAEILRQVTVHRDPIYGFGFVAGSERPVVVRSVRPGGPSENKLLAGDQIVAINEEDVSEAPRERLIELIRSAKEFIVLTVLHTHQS
Chain of MAGI2_6, Q86UL8 (Q86UL8 1141-1229): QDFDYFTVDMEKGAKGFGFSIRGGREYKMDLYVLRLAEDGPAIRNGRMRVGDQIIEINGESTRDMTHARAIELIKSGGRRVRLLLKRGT
Chain of NHERF2_2, Q15599 (Q15599 142-238): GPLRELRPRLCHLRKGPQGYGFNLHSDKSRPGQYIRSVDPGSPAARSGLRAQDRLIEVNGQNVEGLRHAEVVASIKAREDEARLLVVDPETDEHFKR
Chain of PDLIM1, O00151 (O00151 1-87): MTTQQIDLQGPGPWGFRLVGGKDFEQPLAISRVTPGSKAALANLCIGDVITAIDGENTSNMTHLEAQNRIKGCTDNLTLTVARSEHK
Chain of Inadl_1, Q8NI35 (Q8NI35 113-229): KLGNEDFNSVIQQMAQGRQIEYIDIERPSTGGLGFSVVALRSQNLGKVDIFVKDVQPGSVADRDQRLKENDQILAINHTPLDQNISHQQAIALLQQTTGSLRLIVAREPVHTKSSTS
Chain of Inadl_10, Q8NI35 (Q8NI35 1673-1763): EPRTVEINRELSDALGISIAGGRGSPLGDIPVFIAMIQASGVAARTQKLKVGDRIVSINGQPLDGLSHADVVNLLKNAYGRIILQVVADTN
Chain of TJP2_1, Q9UDY2 (Q9UDY2 24-128): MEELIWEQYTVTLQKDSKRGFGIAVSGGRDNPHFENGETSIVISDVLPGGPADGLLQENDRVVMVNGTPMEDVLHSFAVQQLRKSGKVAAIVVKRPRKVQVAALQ
Chain of NHERF4_4, Q86UT5 (Q86UT5 464-550): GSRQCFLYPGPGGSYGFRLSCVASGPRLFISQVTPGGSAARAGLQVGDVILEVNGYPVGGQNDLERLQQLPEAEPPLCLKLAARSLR

pKd (Inadl_10, Q8NI35; [1]): below the threshold
pKd (PDZD2_2, O15018; [1]): below the threshold
pKd (DLG3_2, Q92796; [1]): below the threshold
pKd (FRMPD3, Q5JV73; [1]): 4.66
pKd (PDLIM1, O00151; [1]): below the threshold
pKd (APBA1_1, Q02410; [1]): below the threshold
pKd (NHERF3_4, Q5T2W1; [1]): below the threshold
pKd (MAGI2_6, Q86UL8; [1]): 3.51
pKd (PICK1, Q9NRD5; [1]): below the threshold
pKd (PTPN3, P26045; [1]): 4.55
pKd (NHERF2_2, Q15599; [1]): below the threshold
pKd (Inadl_1, Q8NI35; [1]): 3.72
pKd (FRMPD2_1, Q68DX3; [1]): below the threshold
pKd (TJP2_1, Q9UDY2; [1]): below the threshold
pKd (MPDZ_10, O75970; [1]): below the threshold
pKd (NHERF3_1, Q5T2W1; [1]): 4.91
pKd (NHERF4_1, Q86UT5-2; [1]): 3.51
pKd (LIN7B, Q9HAP6; [1]): below the threshold
pKd (MPDZ_5, O75970; [1]): 4.22
pKd (GRIP1_5, Q9Y3R0; [1]): below the threshold
pKd (TJP1_3, Q07157; [1]): below the threshold
pKd (DLG3_1, Q92796; [1]): below the threshold
pKd (DLG1_2, Q12959; [1]): below the threshold
pKd (NHERF4_4, Q86UT5; [1]): 4.1
pKd (SNX27, Q96L92; [1]): 3.83
pKd (SIPA1L2, Q9P2F8; [1]): below the threshold
pKd (LAP2, Q96RT1; [1]): below the threshold
Binder: VNENQKEYFF [CNTNAP4, Q9C0A0]

pKd (Inadl_10, Q8NI35; [2]): below the threshold
pKd (PDZD2_2, O15018; [2]): 4.13
pKd (DLG3_2, Q92796; [2]): 4.09
pKd (FRMPD3, Q5JV73; [2]): below the threshold
pKd (PDLIM1, O00151; [2]): below the threshold
pKd (APBA1_1, Q02410; [2]): below the threshold
pKd (NHERF3_4, Q5T2W1; [2]): below the threshold
pKd (MAGI2_6, Q86UL8; [2]): below the threshold
pKd (PICK1, Q9NRD5; [2]): below the threshold
pKd (PTPN3, P26045; [2]): below the threshold
pKd (NHERF2_2, Q15599; [2]): below the threshold
pKd (Inadl_1, Q8NI35; [2]): below the threshold
pKd (FRMPD2_1, Q68DX3; [2]): below the threshold
pKd (TJP2_1, Q9UDY2; [2]): below the threshold
pKd (MPDZ_10, O75970; [2]): below the threshold
pKd (NHERF3_1, Q5T2W1; [2]): below the threshold
pKd (NHERF4_1, Q86UT5-2; [2]): below the threshold
pKd (LIN7B, Q9HAP6; [2]): below the threshold
pKd (MPDZ_5, O75970; [2]): below the threshold
pKd (GRIP1_5, Q9Y3R0; [2]): below the threshold
pKd (TJP1_3, Q07157; [2]): below the threshold
pKd (DLG3_1, Q92796; [2]): below the threshold
pKd (DLG1_2, Q12959; [2]): below the threshold
pKd (NHERF4_4, Q86UT5; [2]): below the threshold
pKd (SNX27, Q96L92; [2]): 4.2
pKd (SIPA1L2, Q9P2F8; [2]): below the threshold
pKd (LAP2, Q96RT1; [2]): below the threshold
Binder: DAAHHDESNC [FMNL3, Q8IVF7]

pKd (Inadl_10, Q8NI35; [2]): below the threshold
pKd (PDZD2_2, O15018; [2]): below the threshold
pKd (DLG3_2, Q92796; [2]): below the threshold
pKd (FRMPD3, Q5JV73; [2]): below the threshold
pKd (PDLIM1, O00151; [2]): below the threshold
pKd (APBA1_1, Q02410; [2]): below the threshold
pKd (NHERF3_4, Q5T2W1; [2]): below the threshold
pKd (MAGI2_6, Q86UL8; [2]): below the threshold
pKd (PICK1, Q9NRD5; [2]): below the threshold
pKd (PTPN3, P26045; [2]): 4.25
pKd (NHERF2_2, Q15599; [2]): 4.47
pKd (Inadl_1, Q8NI35; [2]): below the threshold
pKd (FRMPD2_1, Q68DX3; [2]): below the threshold
pKd (TJP2_1, Q9UDY2; [2]): below the threshold
pKd (MPDZ_10, O75970; [2]): below the threshold
pKd (NHERF3_1, Q5T2W1; [2]): 5.23
pKd (NHERF4_1, Q86UT5-2; [2]): below the threshold
pKd (LIN7B, Q9HAP6; [2]): below the threshold
pKd (MPDZ_5, O75970; [2]): below the threshold
pKd (GRIP1_5, Q9Y3R0; [2]): below the threshold
pKd (TJP1_3, Q07157; [2]): below the threshold
pKd (DLG3_1, Q92796; [2]): below the threshold
pKd (DLG1_2, Q12959; [2]): below the threshold
pKd (NHERF4_4, Q86UT5; [2]): below the threshold
pKd (SNX27, Q96L92; [2]): 5.18
pKd (SIPA1L2, Q9P2F8; [2]): below the threshold
pKd (LAP2, Q96RT1; [2]): below the threshold
Binder: EKPIDSETKM [SLC1A3, P43003]

Reference: PMC9482650, “Quantitative fragmentomics allow affinity mapping of interactomes” (Nature Communications, 2022)
